# Measured values from US20240398911A1.
# Experiments:
# Assay in all cases: BLI, sACE22-IgG1 immobilized, RBD-8h analyte
# [1] = molecular target: 8his-tagged RBD of the S protein of bat coronavirus isolate Rs4084 (bat coronavirus Rs4084)
# [2] = molecular target: 8his-tagged RBD of the S protein of bat coronavirus isolate LYRa11 (bat coronavirus LYRa11)
# [3] = molecular target: 8his-tagged RBD of the S protein of bat coronavirus isolate Rs7327 (bat coronavirus Rs7327)
# [4] = molecular target: 8his-tagged RBD of the S protein of bat coronavirus isolate RsSHC014 (bat coronavirus RsSHC014)
# [5] = molecular target: 8his-tagged RBD of the S protein of bat coronavirus isolate Rs4231 (bat coronavirus Rs4231)
substance,measurement,setting,value
sACE22.v2.4 fused to human IgG1 Fc (Fc fusion),Kd,[1],3.1 nM
same,koff,[1],0.0015 s⁻¹
same,kon,[1],480000 M⁻¹ s⁻¹
same,Kd,[2],1.8 nM
same,koff,[2],0.0025 s⁻¹
same,kon,[2],1.4e+06 M⁻¹ s⁻¹
same,Kd,[3],1.9 nM
same,koff,[3],0.0018 s⁻¹
same,kon,[3],980000 M⁻¹ s⁻¹
same,Kd,[4],1.3 nM
same,koff,[4],0.002 s⁻¹
same,kon,[4],1.6e+06 M⁻¹ s⁻¹
same,Kd,[5],3.5 nM
same,koff,[5],0.0016 s⁻¹
same,kon,[5],450000 M⁻¹ s⁻¹
